# Values quoted from earlier work in patent US20240247069A1, “FGFR3 BINDING MOLECULES AND METHODS OF USE THEREOF” (Regeneron Pharmaceuticals, Inc., priority 2023, published 2024).
# Substitutions are numbered along the chain they refer to. In names and notes the source's numbering stands.
# B1: KE63: anti-FGFR3 IIIb and IIIc antibody of WO 2022/040560 A1; VH SEQ ID NO:80, VL SEQ ID NO:81 (antibody, V domains shown)
# VH: QVQLQQSGAELVRPGASVTLSCKASGSTFSDFEIHWVKQTPVHGLEWIGGIDPETGGTAYNQKFKGKAILTADRSSSTAYMELRSLTSEDSAVYYCTRNYDGYSQTMDYWGQGTSVTVSS
# VL: NIMMTQSPSSLAVSAGEKVTMSCKSSQSVLYSSNQKNYLAWYQQKPGQSPKLLIYWASTRESGVPDRFTGSGSGTDFTLTISSVQAEDLAVYYCHQYLSSYTFGGGTKLEMK
# B2: KE94: anti-FGFR3 IIIb and IIIc antibody of WO 2022/040560 A1; VH SEQ ID NO:82, VL SEQ ID NO:83 (antibody, V domains shown)
# VH: B1 VH with S30T, G50A, D73V, R74K, E82G, Q105R
# VL: B1 VL with T78S, T80S, A86T, K108R
# B3: MS-Pro-26: anti-FGFR3 Ig-like domain 3 antibody of WO 2002/102972 A2; VH SEQ ID NO:36, VL SEQ ID NO:37 (antibody, V domains shown)
# VH: QVQLVQSGAEVKKPGASVKVSCKASGYTFTSYYMHWVRQAPGQGLEWMGWINPNSGGTNYAQKFQGRVTMTRDTSISTAYMELSSLRSEDTAVYYCARGYWYAYFTYINYGYFDNWGQGTLVTVSS
# VL: DIALTQPASVSGSPGQSITISCTGTSSDVGGYNYVSWYQQHPGKAPKLMIYDVSNRPSGVSNRFSGSKSGNTASLTISGLQAEDEADYYCQSYDNNSDWFGGGTKLTVLGQ
# B4: MS-Pro-29: anti-FGFR3 Ig-like domain 3 antibody of WO 2002/102972 A2; VH SEQ ID NO:40, VL SEQ ID NO:41 (antibody, V domains shown)
# VH: QVQLVQSGAEVKKPGASVKVSCKASGYTFTSYYMHWVRQAPGQGLEWMGWINPNSGGTNYAQKFQGRVTMTRDTSISTAYMELSSLRSEDTAVYYCARTWQYSYFYYLDGGYYFDIWGQGTLVTVSS
# VL: DIVLTQSPATLSLSPGERATLSCRASQSVSSSYLAWYQQKPGQAPRLLIYGASSRATGVPARFSGSGSGTDFTLTISSLEPEDFATYYCQQTNNAPVTFGQGTKVEIKRT
# B5: MS-Pro-28: anti-FGFR3 Ig-like domain 3 antibody of WO 2002/102972 A2; VH SEQ ID NO:38, VL SEQ ID NO:39 (antibody, V domains shown)
# VH: QVQLVQSGAEVKKPGSSVKVSCKASGGTFSSYAISWVRQAPGQGLEWMGGIIPIFGTANYAQKFQGRVTITADESSTAYMELSSLRSEDTAVYYCARGGGWVSHGYYYLFDLWGQGTLVTVSS
# VL: DIQMTQSPSSLSASVGDRVTITCRASQGISSYLAWYQQKPGKAPKLLIYAASSLQSGVPSRFSGSGSGTDFTLTISSLQPEDFAVYYCFQYGSIPPTFGQGTKVEIKRT
# B6: MS-Pro-11: anti-FGFR3 Ig-like domain 3 antibody of WO 2002/102972 A2; VH SEQ ID NO:30, VL SEQ ID NO:31 (antibody, V domains shown)
# VH: QVQLVQSGAEVKKPGASVKVSCKASGYTFTSYYMHWVRQAPGQGLEWMGWINPNSGGTNYAQKFQGRVTMTRDTSISTAYMELSSLRSEDTAVYYCARYYGSSLYHYVFGGFIDYWGQGTLVTVSS
# VL: DIALTQPASVSGSPGQSITISCTGTSSDVGGYNYVSYQQHPGKAPKLMIYDVSNRPSGVSNRFSGSKSGNTASLTISGLQAEDEADYYCQSHHFYEVFGGGTKLTVLGQ
# B7: FGA0007: anti-FGFR3 (S249C mutant) antibody of WO 2021/010326 A1; VH SEQ ID NO:88, VL SEQ ID NO:89 (antibody, V domains shown)
# VH: QSVEESGGRLVTPGTPLTLTCTVSGFSLSSYPMSWVRQAPGKGLEWIGIISSSGRTYYASWAKGRFTISKASSTTAALKMTSLTTEDTATYFCARGGVYKYDDYGDYVLNLWGRGTLVTVSS
# VL: AIEMTQTPFSVSAAVGGTVTINCQASENIYSNLAWYQQKPGQPPKLLIYAASYLASGVPSRFKGSGSGTDYTLTISGVQCADAATYYCQCTLYSSTYGVAFGGGTEVVVK
# B8: MS-Pro-2: anti-FGFR3 Ig-like domain 2 antibody of WO 2002/102972 A2; VH SEQ ID NO:24, VL SEQ ID NO:25 (antibody, V domains shown)
# VH: QVQLVQSGAEVKKPGASVKVSCKASGYTFTSYYMHWVRQAPGQGLEWMGWINPNSGGTNYAQKFQGRVTMTRDTSISTAYMELSSLRSEDTAVYYCARDFLGYEFDYWGQGTLVTVSS
# VL: DIELTQPPSVSVAPGQTARISCSGDALGDKYASWYQQKPGQAPVLVIYDDSDRPSGIPERFSGSNSGNTATLTISGTQAEDEADYYCQSYDYSADYVFGGGTKLTVLGQ
# B9: FGA0002: anti-FGFR3 (S249C mutant) antibody of WO 2021/010326 A1; VH SEQ ID NO:84, VL SEQ ID NO:85 (antibody, V domains shown)
# VH: QELVESGGGLVQPGGSLKLSCKASGIDFSSYGISWVRQAPGKGLEWIAYIVPGFGIRNYANSVKGRFTISSDNAQNTVFLQMTSLTASDTATYFCARVPQYASSSGYYLPFNLWGPGTLVTVSS
# VL: ALVMTQTPSPVSAAVGGTVTINCQASEDIYYNLAWFQQKPGQPPKLLIYRASTLASGVPSRFSGSGSGTEFTLTISDVQCDDAATYYCLGVYTYISADGNAFGGGTEVVVK
# B10: FGA0005: anti-FGFR3 (S249C mutant) antibody of WO 2021/010326 A1; VH SEQ ID NO:86, VL SEQ ID NO:87 (antibody, V domains shown)
# VH: QSLEESGGRLVTPGTPLTLTCTASGFSLSTYWICWVRQAPGEGLEWIGYISSSGNTYYASWAKGRFTISKTSSTTVDLKMTSLTTEDTATYFCGGHNSDYITGWALDPWGPGTLVTVSS
# VL: AAVLTQTASPMSAAVGGTVTINCQSSKSVYRDKWLSWFQQKPGQPPKLLIYGASNLASGVSSRFKGSGSGTQFTLTISDVQCDDAATYYCLGGYSDNSEDAFGGGTEVVVK
# Test system: FGFR3
# Settings: Table T-3, exemplary FGFR3 D3 binding sequences from cited PCT publications
row,Molecule,Activity
1,B1,Antagonistic
2,B2,Antagonistic
3,B3,Antagonistic
4,B4,Antagonistic
5,B5,Antagonistic
6,B6,Antagonistic

# Same assay, conditions: literature antibodies, sequences from cited PCT publications
row,Molecule,Activity
1,B7,Antagonistic
2,B1,Antagonistic
3,B2,Antagonistic
4,B8,Antagonistic
5,B3,Antagonistic
6,B9,Antagonistic
7,B4,Antagonistic
8,B5,Antagonistic
9,B10,Antagonistic
10,B6,Antagonistic
